Test results reported in IntAct's records for PubMed 22634751.

B1: Cyclin-dependent kinase inhibitor 1C (Homo sapiens), P49918 (parent)
chain: MSDASLRSTSTMERLVARGTFPVLVRTSACRSLFGPVDHEELSRELQARLAELNAEDQNRWDYDFQQDMPLRGPGRLQWTEVDSDSVPAFYRETVQVGRCRLLLAPRPVAVAVAVSPPLEPAAESLDGLEEAPEQLPSVPVPAPASTPPPVPVLAPAPAPAPAPVAAPVAAPVAVAVLAPAPAPAPAPAPAPAPVAAPAPAPAPAPAPAPAPAPAPDAAPQESAEQGANQGQRGQEPLADQLHSGISGRPAAGTAAASANGAAIKKLSGPLISDFFAKRKRSAPEKSSGDVPAPCPSPSAAPGVGSVEQTPRKRLR

Variants of: B1
Conditions: with pcna_human PCNA

effect of a mutation on the interaction	Variant
disrupting interaction	MSDASLRSTSTMERLVARGTFPVLVRTSACRSLFGPVDHEELSRELQARLAELNAEDQNRWDYDFQQDMPLRGPGRLQWTEVDSDSVPAFYRETVQVGRCRLLLAPRPVAVAVAVSPPLEPAAESLDGLEEAPEQLPSVPVPAPASTPPPVPVLAPAPAPAPAPVAAPVAAPVAVAVLAPAPAPAPAPAPAPAPVAAPAPAPAPAPAPAPAPAPAPDAAPQESAEQGANQGQRGQEPLADQLHSGISGRPAAGTAAASANGAAIKKLSGPLISDFVAKRKRSAPEKSSGDVPAPCPSPSAAPGVGSVEQTPRKRLR [F276V]
disrupting interaction	MSDASLRSTSTMERLVARGTFPVLVRTSACRSLFGPVDHEELSRELQARLAELNAEDQNRWDYDFQQDMPLRGPGRLQWTEVDSDSVPAFYRETVQVGRCRLLLAPRPVAVAVAVSPPLEPAAESLDGLEEAPEQLPSVPVPAPASTPPPVPVLAPAPAPAPAPVAAPVAAPVAVAVLAPAPAPAPAPAPAPAPVAAPAPAPAPAPAPAPAPAPAPDAAPQESAEQGANQGQRGQEPLADQLHSGISGRPAAGTAAASANGAAIKKLSGPLISDFFAERKRSAPEKSSGDVPAPCPSPSAAPGVGSVEQTPRKRLR [K278E]
